Data from paper PMC5788916, “The SAM domain of mouse SAMHD1 is critical for its activation and regulation” (Nature Communications, 2018).
Where “and” joins values, the source holds several entries; their conditions need not be identical. Equal values may be shown once. One block for each molecule: values may come before it.

Key:
[1] = molecular target: mouse SAMHD1 HD domain, isoform 2 (residues 145-651) (mouse); test: AUC; sedimentation velocity, 0.8-1.3 mg/mL, 20 °C, 50 mM Tris-HCl pH 8.0, 150 mM NaCl, 5 mM MgCl2, 0.5 mM TCEP; with 150 uM nucleotides (dGTP-α-S)
[2] = molecular target: mouse SAMHD1 HD domain, isoform 2 (residues 145-651) (mouse); test: AUC; sedimentation velocity, 0.8-1.3 mg/mL, 20 °C, 50 mM Tris-HCl pH 8.0, 150 mM NaCl, 5 mM MgCl2, 0.5 mM TCEP; protein alone, no nucleotides added
[3] = molecular target: mouse SAMHD1 HD domain, isoform 2 (residues 145-651) (mouse); test: AUC; sedimentation velocity, 0.8-1.3 mg/mL, 20 °C, 50 mM Tris-HCl pH 8.0, 150 mM NaCl, 5 mM MgCl2, 0.5 mM TCEP; with 150 uM nucleotides (dGTP-α-S); remark: listed apart in the source
[4] = molecular target: mouse SAMHD1 HD domain, isoform 2 (residues 145-651) (mouse); test: SEC; Superdex 200 10/300 GL; 2 mg/ml, 200 ul; 50 mM Tris-HCl pH 8.0, 150 mM NaCl, 5 mM MgCl2, 0.5 mM TCEP; after addition of dGTP-α-S (methods: nucleotide 4 mM final); read-out: assembly of monomers or dimers into tetramers
[5] = molecular target: full-length mouse SAMHD1 (mSAMHD1), wild type (mouse) (UniProt Q60710); test: not stated; up to 24 h of assembly with dGTP-α-S (Supplementary Fig. 1a)
[6] = molecular target: full-length mouse SAMHD1 (mSAMHD1), wild type (mouse) (UniProt Q60710); test: crystal structure; 1-Allo: co-crystallised with 4 mM dGTP-α-S; space group P2(1)2(1)2, 2 copies in the asymmetric unit; 3.4 Å
[7] = molecular target: full-length mouse SAMHD1 (mSAMHD1), wild type (mouse) (UniProt Q60710); test: crystal structure; No-Allo (0-Allo): crystallised without nucleotides; space group C2, 4 copies in the asymmetric unit; 3.5 Å
[8] = molecular target: full-length mouse SAMHD1 (mSAMHD1), wild type (mouse) (UniProt Q60710); test: SEC; Superdex 200 10/300 GL; 2 mg/ml, 200 ul; 50 mM Tris-HCl pH 8.0, 150 mM NaCl, 5 mM MgCl2, 0.5 mM TCEP; no nucleotides added
[9] = molecular target: full-length mouse SAMHD1 (mSAMHD1), wild type (mouse) (UniProt Q60710); test: AUC; sedimentation velocity, 0.8-1.3 mg/mL, 20 °C, 50 mM Tris-HCl pH 8.0, 150 mM NaCl, 5 mM MgCl2, 0.5 mM TCEP; with 150 uM nucleotides (dGTP-α-S)
[10] = molecular target: full-length mouse SAMHD1 (mSAMHD1), wild type (mouse) (UniProt Q60710); test: as above; remark: listed apart in the source
[11] = molecular target: full-length mouse SAMHD1 (mSAMHD1), wild type (mouse) (UniProt Q60710); test: AUC; sedimentation velocity, 0.8-1.3 mg/mL, 20 °C, 50 mM Tris-HCl pH 8.0, 150 mM NaCl, 5 mM MgCl2, 0.5 mM TCEP; protein alone, no nucleotides added
[12] = molecular target: full-length mouse SAMHD1 (mSAMHD1), wild type (mouse) (UniProt Q60710); test: SEC; Superdex 200 10/300 GL; 2 mg/ml, 200 ul; 50 mM Tris-HCl pH 8.0, 150 mM NaCl, 5 mM MgCl2, 0.5 mM TCEP; after addition of dGTP-α-S (methods: nucleotide 4 mM final); read-out: assembly of monomers or dimers into tetramers
[13] = molecular target: full-length mouse SAMHD1 (mSAMHD1), wild type (mouse) (UniProt Q60710); test: as above; remark: listed apart in the source
[14] = molecular target: the molecule itself; test: as above
[15] = molecular target: the molecule itself; test: AUC; sedimentation velocity, 0.8-1.3 mg/mL, 20 °C, 50 mM Tris-HCl pH 8.0, 150 mM NaCl, 5 mM MgCl2, 0.5 mM TCEP; protein alone, no nucleotides added

stoichiometry N [1]: 4 | stoichiometry N [2]: 2 | stoichiometry N [3]: 2 | stoichiometry N [4]: 4
Molecule: mouse SAMHD1 HD domain, isoform 2 (residues 145-651) (domain or fragment)

stoichiometry N [5]: 4 | stoichiometry N [6]: 4 | stoichiometry N [7]: 4 | stoichiometry N [8]: 2 and 4 | stoichiometry N [9]: 2 | stoichiometry N [10]: 4 | stoichiometry N [11]: 2 and 4 | stoichiometry N [12]: 2 | stoichiometry N [13]: 4
Molecule: full-length mouse SAMHD1 (mSAMHD1), wild type (from UniProt Q60710 1-658) (enzyme)

B1: human SAMHD1 L77F/C80F/H111R triple mutant (FFR) (enzyme, UniProt Q9Y3Z3 1-626, looked up)
chain: MQRADSEQPSKRPRCDDSPRTPSNTPSAEADWSPGLELHPDYKTWGPEQVCSFLRRGGFEEPVLLKNIRENEITGAFLPFLDESRFENLGVSSLGERKKLLSYIQRLVQIRVDTMKVINDPIHGHIELHPLLVRIIDTPQFQRLRYIKQLGGGYYVFPGASHNRFEHSLGVGYLAGCLVHALGEKQPELQISERDVLCVQIAGLCHDLGHGPFSHMFDGRFIPLARPEVKWTHEQGSVMMFEHLINSNGIKPVMEQYGLIPEEDICFIKEQIVGPLESPVEDSLWPYKGRPENKSFLYEIVSNKRNGIDVDKWDYFARDCHHLGIQNNFDYKRFIKFARVCEVDNELRICARDKEVGNLYDMFHTRNSLHRRAYQHKVGNIIDTMITDAFLKADDYIEITGAGGKKYRISTAIDDMEAYTKLTDNIFLEILYSTDPKLKDAREILKQIEYRNLFKYVGETQPTGQIKIKREDYESLPKEVASAKPKVLLDVKLKAEDFIVDVINMDYGMQEKNPIDHVSFYCKTAPNRAIRITKNQVSQLLPEKFAEQLIRVYCKKVDRKSLYAARQYFVQWCADRNFTKPQDGDVIAPLITPQKKEWNDSTSVQNPTRLREASKSRVQLFKDDPM
notes: human SAMHD1 with three SAM domain residues changed to their mouse counterparts; compared with full-length WT hSAMHD1; also called FFR mutant; source: purified
stoichiometry N [14]: 4

B2: mouse SAMHD1 HD domain, isoform 1 (residues 145-658) (domain or fragment, UniProt Q60710 145-658, looked up)
chain: DLMKVFNDPIHGHIEFHPLLIRIIDTPQFQRLRYIKQLGGGYYVFPGASHNRFEHSLGVGYLAGCLVRALAEKQPELQISERDILCVQIAGLCHDLGHGPFSHMFDGRFIPRARPEKKWKHEQGSIEMFEHLVNSNELKLVMKNYGLVPEEDITFIKEQIMGPPITPVKDSLWPYKGRPATKSFLYEIVSNKRNGIDVDKWDYFARDCHHLGIQNNFDYKRFIKFARICEVEYKVKEDKTYIRKVKHICSREKEVGNLYDMFHTRNCLHRRAYQHKISNLIDIMITDAFLKADPYVEITGTAGKKFRISTAIDDMEAFTKLTDNIFLEVLHSTDPQLSEAQSILRNIECRNLYKYLGETQPKREKIRKEEYERLPQEVAKAKPEKAPDVELKAEDFIVDVINVDYGMEDKNPIDRVHFYCKSNSKQAVRINKEQVSQLLPEKFAEQLIRVYCKKKDGKSLDAAGKHFVQWCALRDFTKPQDGDIIAPLITPLKWNNKTSSCLQEVSKVKTCLKF
notes: mouse SAMHD1 isoform 1, HD domain without the SAM domain, residues 145-658; The text speaks of 'mHD' and gives limits for both isoforms; source: E. coli BL21 (DE3), purified (Ni-NTA, size-exclusion chromatography)
stoichiometry N [15]: 2 | stoichiometry N [14]: 4
